Data published in patent publication US20090317825.

Target: human GST-E1 (Boston Biochem) (UniProt P22314)
Sequence (P22314 whole entry): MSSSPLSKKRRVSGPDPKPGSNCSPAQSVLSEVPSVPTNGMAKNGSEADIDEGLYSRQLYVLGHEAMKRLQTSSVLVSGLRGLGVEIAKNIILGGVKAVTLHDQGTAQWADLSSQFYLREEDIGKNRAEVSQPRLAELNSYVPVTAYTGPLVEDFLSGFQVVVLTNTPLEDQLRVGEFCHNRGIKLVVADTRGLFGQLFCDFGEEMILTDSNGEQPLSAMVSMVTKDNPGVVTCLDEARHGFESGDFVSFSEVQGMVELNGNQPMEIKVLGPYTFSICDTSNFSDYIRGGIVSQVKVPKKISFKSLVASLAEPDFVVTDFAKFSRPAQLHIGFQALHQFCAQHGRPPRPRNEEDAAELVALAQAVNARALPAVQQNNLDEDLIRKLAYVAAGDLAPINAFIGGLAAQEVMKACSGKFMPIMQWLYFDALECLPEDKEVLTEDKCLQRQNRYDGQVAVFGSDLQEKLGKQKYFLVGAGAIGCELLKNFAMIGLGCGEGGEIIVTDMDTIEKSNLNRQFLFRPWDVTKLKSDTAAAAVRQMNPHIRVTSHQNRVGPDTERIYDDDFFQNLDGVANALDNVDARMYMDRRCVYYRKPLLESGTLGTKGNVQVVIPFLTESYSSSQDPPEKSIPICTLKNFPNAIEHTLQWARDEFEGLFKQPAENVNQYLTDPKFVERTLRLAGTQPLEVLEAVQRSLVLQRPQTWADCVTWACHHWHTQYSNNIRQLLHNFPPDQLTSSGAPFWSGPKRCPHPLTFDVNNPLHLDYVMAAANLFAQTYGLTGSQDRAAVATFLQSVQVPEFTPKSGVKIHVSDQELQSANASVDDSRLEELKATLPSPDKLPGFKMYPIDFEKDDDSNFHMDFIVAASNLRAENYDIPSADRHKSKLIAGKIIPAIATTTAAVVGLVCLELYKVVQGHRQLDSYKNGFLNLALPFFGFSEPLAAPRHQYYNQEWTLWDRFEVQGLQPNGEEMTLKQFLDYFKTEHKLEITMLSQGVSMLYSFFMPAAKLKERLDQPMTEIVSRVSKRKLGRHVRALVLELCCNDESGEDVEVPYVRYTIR

His6-Parkin (full-length human Parkin fused to an N-terminal histidine tag, from E. coli, refolded)
ubiquitination of Parkin in the absence of UbCH7 (biotin-ubiquitin Western blot, NeutrAvidin-HRP): some reaction product was seen in the absence of UbCH7 when Parkin was incubated with E1 and ubiquitin for 90 minutes
